# Experiments:
# [1] = target: recombinant P. xylostella BJSP-1-GST fusion protein (basic juvenile hormone-suppressible protein 1-like) (P. xylostella); test: ELISA; plates coated with BJSP-1-GST (8 μg/well, 4°C overnight); increasing concentrations of Cry7Ab4 toxic core added; detected with anti-His antibody
# [2] = target: recombinant His-tagged Cry7Ab4 toxic core (residues 1-637) (Bacillus thuringiensis); test: ELISA; plates coated with Cry7Ab4 toxic core (8 μg/well, 4°C overnight); increasing concentrations of BJSP-1-GST added; detected with anti-GST antibody
Substance,concentration at which binding was saturated [1],concentration at which binding was saturated [2]
recombinant His-tagged Cry7Ab4 toxic core (residues 1-637) (domain or fragment),16 µg/mL,
recombinant P. xylostella BJSP-1-GST fusion protein (basic juvenile hormone-suppressible protein 1-like) (natural protein),,64 µg/mL

# — paper PMC9491089
